Earlier results, collected in article PMC4355281.

Biological target: PKA RII (UniProt P13861)
Sequence (P13861 2-404): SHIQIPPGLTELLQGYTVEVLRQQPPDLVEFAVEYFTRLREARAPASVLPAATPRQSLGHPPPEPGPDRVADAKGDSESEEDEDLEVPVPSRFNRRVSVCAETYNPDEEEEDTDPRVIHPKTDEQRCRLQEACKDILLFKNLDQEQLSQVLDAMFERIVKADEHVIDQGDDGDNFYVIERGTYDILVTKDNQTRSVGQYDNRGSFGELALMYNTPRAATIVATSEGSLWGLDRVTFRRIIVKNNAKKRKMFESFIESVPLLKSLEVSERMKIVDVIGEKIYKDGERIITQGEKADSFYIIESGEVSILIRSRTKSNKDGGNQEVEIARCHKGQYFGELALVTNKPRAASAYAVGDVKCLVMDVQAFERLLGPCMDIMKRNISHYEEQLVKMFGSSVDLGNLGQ

mAKAPβ, sequence (Q9WVC7 245-2314): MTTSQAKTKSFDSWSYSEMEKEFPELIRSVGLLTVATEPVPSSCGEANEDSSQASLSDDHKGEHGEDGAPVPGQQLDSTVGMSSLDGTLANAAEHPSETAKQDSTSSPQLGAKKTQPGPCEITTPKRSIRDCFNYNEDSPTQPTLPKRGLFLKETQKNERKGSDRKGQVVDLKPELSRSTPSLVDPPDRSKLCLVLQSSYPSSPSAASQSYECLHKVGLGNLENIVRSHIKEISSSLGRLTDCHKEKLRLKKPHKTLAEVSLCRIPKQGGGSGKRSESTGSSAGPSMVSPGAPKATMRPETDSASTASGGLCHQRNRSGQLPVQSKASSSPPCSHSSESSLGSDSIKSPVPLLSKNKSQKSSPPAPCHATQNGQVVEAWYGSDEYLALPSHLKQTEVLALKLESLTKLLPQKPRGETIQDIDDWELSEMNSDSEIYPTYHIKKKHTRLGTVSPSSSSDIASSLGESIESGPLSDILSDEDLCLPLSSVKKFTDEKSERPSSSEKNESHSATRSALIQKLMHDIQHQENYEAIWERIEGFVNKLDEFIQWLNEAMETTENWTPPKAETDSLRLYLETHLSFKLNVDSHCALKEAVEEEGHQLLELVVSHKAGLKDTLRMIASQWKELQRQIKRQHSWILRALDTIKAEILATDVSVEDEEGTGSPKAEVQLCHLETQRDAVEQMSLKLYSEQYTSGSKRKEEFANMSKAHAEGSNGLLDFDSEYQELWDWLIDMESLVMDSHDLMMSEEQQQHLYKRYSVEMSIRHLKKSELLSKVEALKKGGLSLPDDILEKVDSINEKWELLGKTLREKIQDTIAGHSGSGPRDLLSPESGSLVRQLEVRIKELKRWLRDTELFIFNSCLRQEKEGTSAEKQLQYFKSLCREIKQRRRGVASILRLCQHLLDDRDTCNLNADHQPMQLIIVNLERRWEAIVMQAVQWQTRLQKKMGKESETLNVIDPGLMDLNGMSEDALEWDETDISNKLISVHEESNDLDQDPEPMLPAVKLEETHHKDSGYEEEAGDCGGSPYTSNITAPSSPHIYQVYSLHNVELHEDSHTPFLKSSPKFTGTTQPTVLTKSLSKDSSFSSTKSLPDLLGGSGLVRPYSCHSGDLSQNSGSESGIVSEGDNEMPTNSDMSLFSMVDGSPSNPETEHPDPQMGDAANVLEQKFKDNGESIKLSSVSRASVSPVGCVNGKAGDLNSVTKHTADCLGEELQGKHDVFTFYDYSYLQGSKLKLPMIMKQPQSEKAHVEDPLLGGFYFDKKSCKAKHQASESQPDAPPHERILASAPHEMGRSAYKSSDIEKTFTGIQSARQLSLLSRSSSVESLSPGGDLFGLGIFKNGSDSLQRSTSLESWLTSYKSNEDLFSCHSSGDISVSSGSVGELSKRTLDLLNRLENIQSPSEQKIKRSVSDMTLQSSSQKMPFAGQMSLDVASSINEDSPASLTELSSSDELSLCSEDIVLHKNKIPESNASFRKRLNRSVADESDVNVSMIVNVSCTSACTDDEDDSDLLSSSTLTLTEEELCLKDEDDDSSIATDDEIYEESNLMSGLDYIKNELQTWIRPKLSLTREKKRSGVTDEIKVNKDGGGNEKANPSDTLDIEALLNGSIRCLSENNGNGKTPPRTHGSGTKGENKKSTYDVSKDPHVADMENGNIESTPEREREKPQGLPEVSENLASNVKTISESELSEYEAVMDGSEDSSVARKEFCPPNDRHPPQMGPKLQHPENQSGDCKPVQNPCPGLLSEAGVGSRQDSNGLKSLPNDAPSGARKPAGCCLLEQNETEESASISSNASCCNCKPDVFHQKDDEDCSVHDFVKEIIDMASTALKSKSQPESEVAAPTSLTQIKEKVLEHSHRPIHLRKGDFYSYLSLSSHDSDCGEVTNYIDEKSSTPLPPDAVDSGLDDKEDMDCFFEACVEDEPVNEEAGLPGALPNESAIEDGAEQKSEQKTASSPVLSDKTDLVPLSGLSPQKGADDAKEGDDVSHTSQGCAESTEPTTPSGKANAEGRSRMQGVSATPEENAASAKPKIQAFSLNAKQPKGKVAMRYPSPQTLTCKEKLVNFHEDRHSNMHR

Kd: 119 nM
Substance: mAKAPβ (from UniProt Q9WVC7)
